# Changes are numbered by the printed parent chain.
# T1: ADAR1-dsRBD3 (dsRBD3-short) (Homo sapiens, UniProt P55265 716-797)
# T1 sequence: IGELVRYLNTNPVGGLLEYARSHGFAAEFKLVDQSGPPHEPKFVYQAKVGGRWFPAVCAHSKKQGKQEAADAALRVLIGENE
# T2: ADAR1-dsRBD3 interface mutant (monomeric) (Homo sapiens, UniProt P55265 708-801, V747A;D748Q;W768V;C773S)
# T2 sequence: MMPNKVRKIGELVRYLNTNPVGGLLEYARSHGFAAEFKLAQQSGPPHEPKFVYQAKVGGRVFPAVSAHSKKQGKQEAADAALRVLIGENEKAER
# T3: ADAR1-dsRBD3 wild-type (dsRBD3-mid) (Homo sapiens, UniProt P55265 708-801)
# T3 sequence: T2 sequence with A40V, Q41D, V61W, S66C
# B1: 13-nt self-complementary RNA (dsRNA)
# RNA 1: CGAAGCCUUCGCG
# RNA 2: CGAAGCCUUCGCG
# B2: 24 bp dsRNA duplex (dsRNA)
# RNA 1: GGGAUCAAUAUGCUAAGCGAUCCC
# RNA 2: GGGAUCGCUUAGCAUAUUGAUCCC
# Legend:
# [1] = molecular target: T1, ADAR1-dsRBD3 (dsRBD3-short); assay: X-ray crystallography; 2.8 A; crystals from 50 mM Na cacodylate pH 6.0, 5% PEG 4000, 30 mM CaCl2, 230 mM KCl; ITC: 25 mM Na-phosphate pH 7.0, 100 mM NaCl, 2 mM 2-mercaptoethanol, 25 °C; 2.25 uM dsRNA in cell, 80 uM protein in syringe; settings: protein: recombinant; tags: His6 removed by TEV (residual residues remain); chain copies: 2; self-duplex of 2 copies, 11 bp, 3' overhang 2 nt (CG) on each strand; overhangs pair to form a continuous pseudo-A-form helix; 3 strands per asymmetric unit
# [2] = molecular target: T2, ADAR1-dsRBD3 interface mutant …; assay: ITC; N = 3.60 ± 0.36; ITC: 25 mM Na-phosphate pH 7.0, 100 mM NaCl, 2 mM 2-mercaptoethanol, 25 °C; 2.25 uM dsRNA in cell, 80 uM protein in syringe; settings: protein: recombinant; tags: N-terminal His6 (uncleaved); blunt
# [3] = molecular target: T3, ADAR1-dsRBD3 wild-type (dsRBD3-mid); assay: ITC; N = 4.15 ± 0.42; source data sheet gives 123 nM; ITC: 25 mM Na-phosphate pH 7.0, 100 mM NaCl, 2 mM 2-mercaptoethanol, 25 °C; 2.25 uM dsRNA in cell, 80 uM protein in syringe; settings: protein: recombinant; tags: N-terminal His6 (uncleaved); chain copies: 2; blunt
binder,measurement,setting,value
B1,binding result,[1],binds
B2,Kd,[2],410 ± 65 nM
same,Kd,[3],125 ± 25 nM

# — article PMC11582362
